Source: patent publication US6423315 (UNIVERSITY OF TENNESSEE RESEARCH, dated 2002)
Ends that are not written are not given here.

Molecular target: I-A^q molecule of MHC (mouse (DBA/1))
Experiment: cell-based or functional assay

- IL-2 U/ml, T-cell hybridoma 2qCII92.33, molar ratio competitor:CII 245-270 1.6:1: 160 U/ml
- IL-2 U/ml, T-cell hybridoma 2qCII92.33, molar ratio competitor:CII 245-270 3.2:1: 160 U/ml
- IL-2 U/ml, T-cell hybridoma 2qCII92.33, molar ratio competitor:CII 245-270 6.5:1: 160 U/ml
- IL-2 U/ml, T-cell hybridoma 2qCII92.33, molar ratio competitor:CII 245-270 13:1: 160 U/ml
- IL-2 U/ml, T-cell hybridoma qCII85.33, molar ratio competitor:CII 245-270 1.6:1: 640 U/ml
- IL-2 U/ml, T-cell hybridoma qCII85.33, molar ratio competitor:CII 245-270 3.2:1: 640 U/ml
- IL-2 U/ml, T-cell hybridoma qCII85.33, molar ratio competitor:CII 245-270 6.5:1: 640 U/ml
- IL-2 U/ml, T-cell hybridoma qCII85.33, molar ratio competitor:CII 245-270 13:1: 640 U/ml
- IL-2 U/ml, T-cell hybridoma qCII98.10, molar ratio competitor:CII 245-270 1.6:1: 160 U/ml
- IL-2 U/ml, T-cell hybridoma qCII98.10, molar ratio competitor:CII 245-270 3.2:1: 160 U/ml
- IL-2 U/ml, T-cell hybridoma qCII98.10, molar ratio competitor:CII 245-270 6.5:1: 160 U/ml
- IL-2 U/ml, T-cell hybridoma qCII98.10, molar ratio competitor:CII 245-270 13:1: 160 U/ml
Binder: PTGPLGPKGQTGELGIAGFKGDTGAK (not fully specified) [CII 245-270 [s266, 267, 269]]
